Data from patent US20240287154A1, “MC3R AGONIST PEPTIDES” (The Regents of the University of Michigan, priority 2021, published 2024).
Non-standard residues stand in square brackets, D forms with d. Phe(4-I) = N[C@@H](Cc1ccc(I)cc1)C(=O)O; Nle = CCCC[C@H](N)C(=O)O; dAbu = CC[C@@H](N)C(=O)O; Aib = CC(C)(N)C(=O)O

B1: CTX-1538 (peptide)
peptide: Ac-[Nle][dA]HFR[dW]DRFV-OH
SMILES: CCCC[C@H](NC(C)=O)C(=O)N[C@H](C)C(=O)N[C@@H](Cc1c[nH]cn1)C(=O)N[C@@H](Cc1ccccc1)C(=O)N[C@@H](CCCNC(=N)N)C(=O)N[C@H](Cc1c[nH]c2ccccc12)C(=O)N[C@@H](CC(=O)O)C(=O)N[C@@H](CCCNC(=N)N)C(=O)N[C@@H](Cc1ccccc1)C(=O)N[C@H](C(=O)O)C(C)C
B2: CTX-1132 (peptide)
peptide: H-YV[Nle][dF]HFR[dW]D-NH2
SMILES: CCCC[C@H](NC(=O)[C@@H](NC(=O)[C@@H](N)Cc1ccc(O)cc1)C(C)C)C(=O)N[C@H](Cc1ccccc1)C(=O)N[C@@H](Cc1c[nH]cn1)C(=O)N[C@@H](Cc1ccccc1)C(=O)N[C@@H](CCCNC(=N)N)C(=O)N[C@H](Cc1c[nH]c2ccccc12)C(=O)N[C@@H](CC(=O)O)C(N)=O
B3: CTX-1533 (peptide)
peptide: Ac-[Nle][dA]HFR[dW]KRFG-OH
SMILES: CCCC[C@H](NC(C)=O)C(=O)N[C@H](C)C(=O)N[C@@H](Cc1c[nH]cn1)C(=O)N[C@@H](Cc1ccccc1)C(=O)N[C@@H](CCCNC(=N)N)C(=O)N[C@H](Cc1c[nH]c2ccccc12)C(=O)N[C@@H](CCCCN)C(=O)N[C@@H](CCCNC(=N)N)C(=O)N[C@@H](Cc1ccccc1)C(=O)NCC(=O)O
B4: CTX-1546 (peptide)
peptide: H-VMGHFR[dW]DRFG-OH
B5: CTX-1545 (peptide)
peptide: Ac-[Nle][Aib]H[Phe(4-I)]R[dW]G-NH2
SMILES: CCCC[C@H](NC(C)=O)C(=O)NC(C)(C)C(=O)N[C@@H](Cc1c[nH]cn1)C(=O)N[C@@H](Cc1ccc(I)cc1)C(=O)N[C@@H](CCCNC(=N)N)C(=O)N[C@H](Cc1c[nH]c2ccccc12)C(=O)NCC(N)=O
B6: CTX-1534 (peptide)
peptide: Ac-[Nle][dA]HFR[dW]DAFG-OH
SMILES: CCCC[C@H](NC(C)=O)C(=O)N[C@H](C)C(=O)N[C@@H](Cc1c[nH]cn1)C(=O)N[C@@H](Cc1ccccc1)C(=O)N[C@@H](CCCNC(=N)N)C(=O)N[C@H](Cc1c[nH]c2ccccc12)C(=O)N[C@@H](CC(=O)O)C(=O)N[C@@H](C)C(=O)N[C@@H](Cc1ccccc1)C(=O)NCC(=O)O
B7: CTX-1131 (peptide)
peptide: H-YV[Nle][dAbu]HFR[dW]D-NH2
SMILES: CCCC[C@H](NC(=O)[C@@H](NC(=O)[C@@H](N)Cc1ccc(O)cc1)C(C)C)C(=O)N[C@H](CC)C(=O)N[C@@H](Cc1c[nH]cn1)C(=O)N[C@@H](Cc1ccccc1)C(=O)N[C@@H](CCCNC(=N)N)C(=O)N[C@H](Cc1c[nH]c2ccccc12)C(=O)N[C@@H](CC(=O)O)C(N)=O
B8: CTX-1543 (peptide)
peptide: Ac-[Nle][dA]H[Phe(4-I)]R[dW]G-NH2
SMILES: CCCC[C@H](NC(C)=O)C(=O)N[C@H](C)C(=O)N[C@@H](Cc1c[nH]cn1)C(=O)N[C@@H](Cc1ccc(I)cc1)C(=O)N[C@@H](CCCNC(=N)N)C(=O)N[C@H](Cc1c[nH]c2ccccc12)C(=O)NCC(N)=O
B9: CTX-1541 (peptide)
peptide: Ac-[Nle][dA]HFR[dW]F-NH2
SMILES: CCCC[C@H](NC(C)=O)C(=O)N[C@H](C)C(=O)N[C@@H](Cc1c[nH]cn1)C(=O)N[C@@H](Cc1ccccc1)C(=O)N[C@@H](CCCNC(=N)N)C(=O)N[C@H](Cc1c[nH]c2ccccc12)C(=O)N[C@@H](Cc1ccccc1)C(N)=O
B10: CTX-1531 (peptide)
peptide: Ac-[Nle][dA]HFR[dW][dF]RFG-OH
SMILES: CCCC[C@H](NC(C)=O)C(=O)N[C@H](C)C(=O)N[C@@H](Cc1c[nH]cn1)C(=O)N[C@@H](Cc1ccccc1)C(=O)N[C@@H](CCCNC(=N)N)C(=O)N[C@H](Cc1c[nH]c2ccccc12)C(=O)N[C@H](Cc1ccccc1)C(=O)N[C@@H](CCCNC(=N)N)C(=O)N[C@@H](Cc1ccccc1)C(=O)NCC(=O)O
B11: CTX-1529 (peptide)
peptide: Ac-[Nle][dA]HFR[dW]FRFG-OH
SMILES: CCCC[C@H](NC(C)=O)C(=O)N[C@H](C)C(=O)N[C@@H](Cc1c[nH]cn1)C(=O)N[C@@H](Cc1ccccc1)C(=O)N[C@@H](CCCNC(=N)N)C(=O)N[C@H](Cc1c[nH]c2ccccc12)C(=O)N[C@@H](Cc1ccccc1)C(=O)N[C@@H](CCCNC(=N)N)C(=O)N[C@@H](Cc1ccccc1)C(=O)NCC(=O)O
B12: CTX-1542 (peptide)
peptide: Ac-[Nle][dA]HFR[dW][dF]-NH2
SMILES: CCCC[C@H](NC(C)=O)C(=O)N[C@H](C)C(=O)N[C@@H](Cc1c[nH]cn1)C(=O)N[C@@H](Cc1ccccc1)C(=O)N[C@@H](CCCNC(=N)N)C(=O)N[C@H](Cc1c[nH]c2ccccc12)C(=O)N[C@H](Cc1ccccc1)C(N)=O
B13: CTX-1537 (peptide)
peptide: Ac-[Nle][dA]HFR[dW]DRAG-OH
SMILES: CCCC[C@H](NC(C)=O)C(=O)N[C@H](C)C(=O)N[C@@H](Cc1c[nH]cn1)C(=O)N[C@@H](Cc1ccccc1)C(=O)N[C@@H](CCCNC(=N)N)C(=O)N[C@H](Cc1c[nH]c2ccccc12)C(=O)N[C@@H](CC(=O)O)C(=O)N[C@@H](CCCNC(=N)N)C(=O)N[C@@H](C)C(=O)NCC(=O)O
B14: CTX-1540 (peptide)
peptide: Ac-[Nle][dA]HFR[dW]G-NH2
SMILES: CCCC[C@H](NC(C)=O)C(=O)N[C@H](C)C(=O)N[C@@H](Cc1c[nH]cn1)C(=O)N[C@@H](Cc1ccccc1)C(=O)N[C@@H](CCCNC(=N)N)C(=O)N[C@H](Cc1c[nH]c2ccccc12)C(=O)NCC(N)=O
B15: CTX-1547 (peptide)
peptide: H-MGHFR[dW]DRFG-OH
SMILES: CSCC[C@H](N)C(=O)NCC(=O)N[C@@H](Cc1c[nH]cn1)C(=O)N[C@@H](Cc1ccccc1)C(=O)N[C@@H](CCCNC(=N)N)C(=O)N[C@H](Cc1c[nH]c2ccccc12)C(=O)N[C@@H](CC(=O)O)C(=O)N[C@@H](CCCNC(=N)N)C(=O)N[C@@H](Cc1ccccc1)C(=O)NCC(=O)O
B16: CTX-1535 (peptide)
peptide: Ac-[Nle][dA]HFR[dW]DKFG-OH
SMILES: CCCC[C@H](NC(C)=O)C(=O)N[C@H](C)C(=O)N[C@@H](Cc1c[nH]cn1)C(=O)N[C@@H](Cc1ccccc1)C(=O)N[C@@H](CCCNC(=N)N)C(=O)N[C@H](Cc1c[nH]c2ccccc12)C(=O)N[C@@H](CC(=O)O)C(=O)N[C@@H](CCCCN)C(=O)N[C@@H](Cc1ccccc1)C(=O)NCC(=O)O
B17: CTX-1532 (peptide)
peptide: Ac-[Nle][dA]HFR[dW][Nle]RFG-OH
SMILES: CCCC[C@H](NC(C)=O)C(=O)N[C@H](C)C(=O)N[C@@H](Cc1c[nH]cn1)C(=O)N[C@@H](Cc1ccccc1)C(=O)N[C@@H](CCCNC(=N)N)C(=O)N[C@H](Cc1c[nH]c2ccccc12)C(=O)N[C@@H](CCCC)C(=O)N[C@@H](CCCNC(=N)N)C(=O)N[C@@H](Cc1ccccc1)C(=O)NCC(=O)O
B18: CTX-1530 (peptide)
peptide: Ac-[Nle][dA]HFR[dW][dF]RFG-OH
SMILES: CCCC[C@H](NC(C)=O)C(=O)N[C@H](C)C(=O)N[C@@H](Cc1c[nH]cn1)C(=O)N[C@@H](Cc1ccccc1)C(=O)N[C@@H](CCCNC(=N)N)C(=O)N[C@H](Cc1c[nH]c2ccccc12)C(=O)N[C@H](Cc1ccccc1)C(=O)N[C@@H](CCCNC(=N)N)C(=O)N[C@@H](Cc1ccccc1)C(=O)NCC(=O)O
B19: CTX-1536 (peptide)
peptide: Ac-[Nle][dA]HFR[dW]DRPG-OH
SMILES: CCCC[C@H](NC(C)=O)C(=O)N[C@H](C)C(=O)N[C@@H](Cc1c[nH]cn1)C(=O)N[C@@H](Cc1ccccc1)C(=O)N[C@@H](CCCNC(=N)N)C(=O)N[C@H](Cc1c[nH]c2ccccc12)C(=O)N[C@@H](CC(=O)O)C(=O)N[C@@H](CCCNC(=N)N)C(=O)N1CCC[C@H]1C(=O)NCC(=O)O
B20: CTX-1539 (peptide)
peptide: Ac-[Nle][dA]HFR[dW]-NH2

Molecular target: human MC3R (human, UniProt P41968 1-323)
Assay: cell-based or functional assay

Sequence of human MC3R (P41968 whole entry): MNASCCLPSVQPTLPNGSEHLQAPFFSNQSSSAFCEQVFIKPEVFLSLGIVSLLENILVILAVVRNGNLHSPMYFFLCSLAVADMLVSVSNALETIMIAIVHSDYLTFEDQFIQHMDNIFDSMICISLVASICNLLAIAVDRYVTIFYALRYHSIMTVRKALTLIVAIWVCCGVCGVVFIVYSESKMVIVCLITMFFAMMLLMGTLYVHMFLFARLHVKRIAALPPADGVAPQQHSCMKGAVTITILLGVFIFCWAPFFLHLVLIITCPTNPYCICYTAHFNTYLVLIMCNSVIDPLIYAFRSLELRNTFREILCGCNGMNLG

Compared with B1, B2 is 1.9-fold lower in “MC3R cAMP (EC50)” value: 7.4 nM for the first, 3.9 nM for the second.

Compared with B3, B4 is 8.4-fold lower in “MC3R cAMP (EC50)” value: 14.2 nM for the first, 1.7 nM for the second.

B5 and B6 are within 1.5-fold of each other in “MC3R cAMP (EC50)” value: 51.6 nM for the first, 38.8 nM for the second.

Going from B7 to B8, the “MC3R cAMP (EC50)” value falls from 6.6 nM to 3.1 nM (2.1-fold).

Compared with B9, B10 is 5.5-fold higher in “MC3R cAMP (EC50)” value: 65.2 nM for the first, 356 nM for the second.

Compared with B11, B12 is 13-fold higher in “MC3R cAMP (EC50)” value: 4.8 nM for the first, 64.6 nM for the second.

B13 and B14 are within 1.5-fold of each other in “MC3R cAMP (EC50)” value: 25.5 nM for the first, 25.1 nM for the second.

Going from B15 to B16, the “MC3R cAMP (EC50)” value rises from 1.5 nM to 6 nM (4-fold).

Going from B17 to B18, the “MC3R cAMP (EC50)” value rises from 10.3 nM to 289 nM (28-fold).

Going from B19 to B20, the “MC3R cAMP (EC50)” value falls from 73 nM to 47.1 nM (1.5-fold).

Going from B1 to B2, the “MC3R selectivity (relative to MC4R)” value falls from 1280 to 6.8.

First: B3
Second: B4
The “MC3R selectivity (relative to MC4R)” value of the first is higher: 314 for the first, 51 for the second.

Compared with B5, B6 is higher in “MC3R selectivity (relative to MC4R)” value: 14 for the first, 186 for the second.

Compared with B7, B8 is higher in “MC3R selectivity (relative to MC4R)” value: 65 for the first, 202 for the second.

First: B9
Second: B11
The “MC3R selectivity (relative to MC4R)” value of the first is lower: 9 for the first, 82 for the second.

Compared with B12, B13 is higher in “MC3R selectivity (relative to MC4R)” value: 15 for the first, 278 for the second.

Going from B14 to B15, the “MC3R selectivity (relative to MC4R)” value rises from 11 to 54.

Compared with B16, B17 is lower in “MC3R selectivity (relative to MC4R)” value: 1590 for the first, 184 for the second.

Going from B19 to B20, the “MC3R selectivity (relative to MC4R)” value falls from 72 to 16.
